{
  "source": "paper PMC9489782",
  "key": {"[1]": {"molecular_target": "chimeric PAPP-A^1100-1111* (loop 2 replaced by amino acids 1125-1136 from PAPP-A2) (human)"}, "[2]": {"molecular_target": "PAPP-A^1100-1135* (PAPP-A^1100-1135 replaced with PAPP-A2^1125-1162) (human)"}, "[3]": {"molecular_target": "PAPP-A triple mutant L1254A/F1257A/H1211A (human)"}, "[4]": {"molecular_target": "FAM-labeled FL IGFBP5 (human) (UniProt P24593)", "assay": "fluorescence polarisation; direct binding: 5 nM FAM-labeled FL IGFBP5, serial dilutions of PAPP-A (E483A) (10 uM-50 nM), PBS, room temperature, read at 10 min; EC50 of the fit taken as KD"}, "[5]": {"molecular_target": "catalytically inactive full-length (FL) PAPP-A (E483A) (human)"}, "IGFBP5 K128A (human)": {"molecular_target": "IGFBP5 K128A (human) (UniProt P24593)"}, "FL IGFBP5 (human)": {"molecular_target": "FL IGFBP5 (human) (UniProt P24593)"}, "IGFBP5 K128D (human)": {"molecular_target": "IGFBP5 K128D (human) (UniProt P24593)"}, "[6]": {"molecular_target": "Wild type (WT) PAPP-A (auto-cleaved) (human) (UniProt Q13219)", "assay": "SEC; Superose 6 Increase 10/300 in 1X PBS, 0.5 mL/min; 0.2 mL of each protein at 1.4 uM; fractions on reduced SDS-PAGE"}, "[7]": {"molecular_target": "N-terminal Alexa Fluor 568 conjugated IGFBP5^121-143 (human)", "assay": "fluorescence polarisation; direct binding: 5 nM N-terminal Alexa Fluor 568 IGFBP5^121-143, serial dilutions of WT PAPP-A (5.65 uM to 33 nM), PBS, room temperature, read at 10 min; EC50 of the fit taken as KD"}, "[8]": {"molecular_target": "Wild type (WT) PAPP-A (auto-cleaved) (human) (UniProt Q13219)", "assay": "SEC-MALS; Superdex200 Increase 10/300 GL in PBS, 0.5 mL/min; PAPP-A and PAPP-A (E483A) 100 uL of 1 mg/mL; PAPP-A2 100 uL of 1, 3 and 6 mg/mL"}, "[9]": {"molecular_target": "Wild type (WT) PAPP-A (auto-cleaved) (human) (UniProt Q13219)"}, "[10]": {"molecular_target": "PAPP-A^4C4S (C1112S, C1125S, C1130S and C1135S) (human)"}},
  "data": [
    {"substance": "chimeric PAPP-A^1100-1111* (loop 2 replaced by amino acids 1125-1136 from PAPP-A2) (enzyme)", "values": [
      {"measurement": "EC50 of IGFBP4 cleavage (400 nM IGFBP4/700 nM IGF1) by the variant, gel-based assay, 37 °C, 4 h", "setting": "[1]", "result": 0.519, "unit": "nM"}
    ]},
    {"substance": "PAPP-A^1100-1135* (PAPP-A^1100-1135 replaced with PAPP-A2^1125-1162) (enzyme)", "values": [
      {"measurement": "EC50 of IGFBP4 cleavage (400 nM IGFBP4/700 nM IGF1) by the variant, gel-based assay, 37 °C, 4 h", "setting": "[2]", "result": 0.954, "unit": "nM"}
    ]},
    {"substance": "PAPP-A triple mutant L1254A/F1257A/H1211A (enzyme)", "values": [
      {"measurement": "EC50 of IGFBP4 cleavage (400 nM IGFBP4/700 nM IGF1) by the triple mutant, gel-based assay, 37 °C, 4 h", "setting": "[3]", "result": 2.6, "unit": "nM"}
    ]},
    {"substance": "catalytically inactive full-length (FL) PAPP-A (E483A) (enzyme)", "values": [
      {"measurement": "Kd", "setting": "[4]", "result": 250, "unit": "nM"}
    ]},
    {"substance": "C-terminally truncated PAPP-A (1132) (domain or fragment)", "values": [
      {"measurement": "EC50 of IGFBP4 cleavage (400 nM IGFBP4/700 nM IGF1) by the co-expressed PAPP-A (FL, E483A)/PAPP-A (1132) heterodimer, gel-based assay, 37 °C, 4 h", "setting": "[5]", "result": 0.466, "unit": "nM"}
    ]},
    {"substance": "PAPP-A (1267) (domain or fragment)", "values": [
      {"measurement": "EC50 of IGFBP4 cleavage (400 nM IGFBP4/700 nM IGF1) by PAPP-A (1267), gel-based assay, 37 °C, 4 h", "setting": "PAPP-A (1267) (human)", "result": 0.597, "unit": "nM"}
    ]},
    {"substance": "Wild type (WT) PAPP-A (auto-cleaved) (from UniProt Q13219 82-1627) (enzyme)", "values": [
      {"measurement": "EC50 (PAPP-A concentration) of proteolysis of 500 nM IGFBP5 K128A by WT PAPP-A, gel-based assay, 37 °C, 4 h", "setting": "IGFBP5 K128A (human)", "result": 1.3, "unit": "nM"},
      {"measurement": "EC50 (PAPP-A concentration) of proteolysis of 500 nM WT IGFBP5 by WT PAPP-A, gel-based assay, 37 °C, 4 h", "setting": "FL IGFBP5 (human)", "result": 0.053, "unit": "nM"},
      {"measurement": "EC50 (PAPP-A concentration) of proteolysis of 500 nM IGFBP5 K128D by WT PAPP-A, gel-based assay, 37 °C, 4 h", "setting": "IGFBP5 K128D (human)", "result": 15.3, "unit": "nM"},
      {"measurement": "stoichiometry N", "setting": "[6]", "result": 2},
      {"measurement": "Kd", "setting": "[7]", "result": 380, "unit": "nM"},
      {"measurement": "stoichiometry N", "setting": "[8]", "result": 2},
      {"measurement": "EC50 of IGFBP4 cleavage (400 nM IGFBP4/700 nM IGF1) by WT PAPP-A, gel-based assay, 37 °C, 4 h", "setting": "[9]", "result": 0.026, "unit": "nM"}
    ]},
    {"substance": "PAPP-A^4C4S (C1112S, C1125S, C1130S and C1135S) (enzyme)", "values": [
      {"measurement": "EC50 of IGFBP4 cleavage (400 nM IGFBP4/700 nM IGF1) by the variant, gel-based assay, 37 °C, 4 h", "setting": "[10]", "result": 0.402, "unit": "nM"}
    ]}
  ]
}
